# Experiment: soluble on expression in E. coli; label from the status in PepcDB or PDB records
row,Sequence,soluble on expression in E. coli
1,MAHHHHHHMQLQADLTQRTDSVNAIQRNFERLSAMHHAEQLELRRLRLLEKTRSEVAPDGLDAATRQLESVLAEMRHKALEQQTTFVQMEVDLQAANSSCALQQGIARLIASHADGFRDVLQAEAVAHSQLYQSAMSERAIIGSRNEATQQQLLCKDVAQLVADHQAQIVTKLIRGGAAESCRLQKSLAQVSTATVQELVRQGLRETAEAVHQYVASIHAADQERVLAEAEGQRDRERLRLALGELLRLRLRATEEAEATARQALLFGALQACATAQRAAEEVRLLTANADAAAAATRSSWEVTAALLTRRVSDWHDAADMRLVDFHDTIEASMAEKARERDAQSQQKTQELLLEERKRLENLHASQMQTMQVDWRRQRDAVQQSHAMQLEQVRSDLVAQVQVAEDRRVAAERRTGAMEAALIQLKRDHAAEVQAVEAHWRSAVSDAGRHCEQRWRTMLEVYQEGQKAHRGAMLQLFVDFLCTRGQCVYEEQAERAALCRSHWRNQTQHLREEQAAVMQHGVATADLLERMRCHKEDEAASRAVLHASEASDWAALVRKEAAHNAQAHHAVSMAAAAAGLEGLRAEMAGREVRWGQRLDALEADLRRAQQKCLGVVRRASDAVVAAQEAQAALQATQRDFAAYRCGVSAAAQRIEVAESATESACCCSLCLQLYCQPVACVPCGHIYCANCLLRHARNRSLSSVTSSFASAAGASTSENGAVGARAALEVTHWLRGKSTPHAFLFCPECASATVSTVVELPILGELTAKYDYKKRSLAVLLAELR,not soluble
2,MPGAMESPNESEDVSKTFFKLCDGLRLGELVTTEHFRLSDVMSAIELGEPKMDVGVGSKHIKTLKEAISGGLYADDYPFQLAIMDSTLAMVVAWLEGSALGSTVWTNVLLSNVTFVKHPVFHPFASGVNLFIRNAHALINSVGNLEELPEDFNPQMLFSHQRWAPRRVVVQLMREQVTLLGTTGRKWRESAFSKQAYDICCAVASRLEMFIMLLEIIGLLVAPEIEDPNFDHKVHLGDFYVHEKEYEGAEENSDEKSEESTSDPTPSSEAKSETTEKKEQKSNDEATDETDQNDDENVGDDEDEDDMKQFKPNFGFASILAERLCKVTKAYAETVKLGRRAPDNIDGDGDYLWLGAYEPKTCIRMIPACFPRKIKVPSRQEAADWWVKCAERIYHLCIVTPKTSKDLNYLFYFARTFGQNACVFTRSLLQICMFPVDNHLCGDENRSIADAVEYSLSNCFCPQILDRVSPVYKDQTAQSLYVLFLNHMSKLAITVYGSFGCNLSRQRDRLEMAIEDLGQIHSYAGRLEERTDEVLLSGKMVTAKEQNYSYHSVATFVFHNLLAIINHYFELGFRMDLYVPYEFPYIYWFIGSVQAHWMRTTLERSQEIQLNVYQANPLRETKNKKLWEERCKLGEELKRRVAAHQFSVLNQIAISMISDGVVRLTVVLIRKGIIKMPKGGDDAEKLRFERRFEPFDSLGPPVRVDYERFKSDSGIDQMYEDKIETLIDQAQKSFNEAREHLEKIDNSVEQNREMMQLIHVAKSNIIACRVLKLDLTDRNVVWSFSEEIPMFPCLKISKK,not soluble
3,MLAVHRPSSAVSDGDSVQIPMMIASFQKRFPSLSRDSTAARFHTHEVGPNQCCSAVIQEISAPISTVWSVVRRFDNPQAYKHFLKSCSVIGGDGDNVGSLRQVHVVSGLPAASSTERLDILDDERHVISFSVVGGDHRLSNYRSVTTLHPSPISGTVVVESYVVDVPPGNTKEETCDFVDVIVRCNLQSLAKIAENTAAESKKKMSL,not soluble
4,MSLTNEPLASRMRPNNIDEIISQEHLVGPKGIIRRMVETKRLSSMIFYGPPGIGKTSIAKAISGSTQFKFRQLNAVTNTKKDMQLIVEEAKMSGQVILLLDEIHRLDKAKQDFLLPHLENGKIVLIGATTSNPYHAINPAIRSRAQIFELYPLDENDVRVSLDRALNDSERGLASYNPKVDEDAMAYFTTQSQGDVRSALNALELAVLSSENIDQQRHITLQDAKDCLQKGAFVSDKDGDMHYDVMSAFQKSIRGSDVNAALHYLARLIEAGDLPTIVRRLLVISFEDVGLASPSAGQRTLAAIESAERLGFPEARIPLSQAVIELCLSPKSNSGINAIDAALSDIRKGHVGQIPDHLKDGHYAGAKELGRSIGYKYPHNYENGFVTQQYLPMKLKNRIYYEPKTTSKSEQQFKAVFDHINQSQQKNKEGHHHHHH,not soluble
5,MISPQEQQKQEIATTPSGTKENEKLVVPGVQVALENISTKSVLNAVNYKYAQLFHREQVSSAQSNTTSKQYIEERKTSNGTIGEVLRKFEKGRLLGKGGFAKVYQLTDIHTHQKYAGKIIPKNAIRKESAKQKLISEIRIHRELRHRHIVKFESCFEDQENVYIVLELCPNGSIMDMVRQRGRLTEYETRYFMIQILDAIRYMHRECLVIHRDLKLGNFFLDENMEVKIGDFGLAAQLSSDKERKRTICGTPNYIAPEILSGKQGHSFEVDIWSTGVVFYTMLVGKPPFETSDVKSTYKRIKENIYSIPESLDLSTSAIELIGSILNSDPAKRLSLDEIRSHPFFDAKIPRALSIHALKSTPVFEESELIERNKESSSYKKGRENRQQTVVGSSGLWNDVIQSISQDQRTPLQKLQQHIKSNAAKNNDHAEKLHQALEKHLQLNDNQSKKEEKLLESQEAHSKSTKGIFDKGLDTQSEDEERMVLNKVRDQLTSSFALLKNAEQSPYAFTSSLNTNDGTTSGSPSFQSPVNALTGGAWICKWLDYSKKYGLGYQTCLGSTGVCFNDGTQIILEKGQQNWIYYMKRTESHEERNENKWIKMTMEDYPSELQKKVKLLIHFRNYMLDHTPKGQEDPLISPESSFQNIDTSNETCGAKDATRPVYIKTWFRSPYAIIFRLSNRNIQVDFNDGTEVILSPEVHVVTYRGKDGRRNSYQQGHLPSLPELLKRLRYVMDLLQEMLNRKTS,soluble
6,SPVRTECPPPAGASTTSAASLIPPPPINTQQPGVATSLLYSGSKFRGHQKSKGNSYDVEVVLQHVDTGNSYLCGYLKIKGLTEEYPTLTTFFEGEIISKKHPFLTRKWDADEDVDRKHWGKFLAFYQYAKSFNSDDFDYEELKNGDYVFMRWKEQFLVPDHTIKDISGASFAGFYYICFQKSAASIEGYYYHRSSEWYQSLNLTHVPEHSAPIYEFR,soluble
7,MSLNDKVTAVRDVWRYEQGEISKVEDRMVTEFPLTVILNGSEFVTLVCTPEHIEELVIGFLASEGVIRFQKEIKRFTIDESLGFVYVDLVHPETLDQKDYTKRVIGSCCGKGRHFYFQQDVKTAKTAVSQIKISPEACLALMKDMQQGSGTFQDTGGVHNAALCDTEKLLLMRTDIGRHNALDKLYGHCLLNGMSVRDKLIVFSGRISSEVLLKAAKIGVSIVISKSAPTELAIQMAEELNITAIGFVRNGSFNVYTHPERIREEGHHHHHH,soluble
8,MGSDKIHHHHHHMIDPDDMDHCRHAIREGSYSFHAASKLLPSSVRDPALALYAFCRLADDEVDFGADKPAAVLALSERLEHAYQGRPRNHPTDRAFTAMIEEFDMPRALPEALLEGLAWDGMERRYATLSDLRSYSARVASAVGAMMCVLMRVRDEQALARACDLGVAMQLTNIARDVGEDAAERRLYLPTDWLEEEGIDIERLFTSPVSSPRLKRLTKRLLAEAHKLYLKSEPGIGRLPLAARPGIFAARHCYDAIGRNLAQHGYDNVNRRATTTGGHKMRLLGLSIVRAGLASILPESPVIFARPLPETAFLVEAAAHPAPNKDAWSDPLLSVLSQLKAQDRPHAAE,not soluble
9,MAHHHHHHMGTLEAQTQGPGSMVTANSTVKVGNVTFSNSAPLALIAGPCQMETRDHAFEMAGRLKEMTDKLGIGLVYKSSFDKANRTSLKAARGIGLEKALEVFSDLKKEYGFPVLTDIHTEEQCAAVAPVVDVLQIPAFLCRQTDLLIAAARTGRVVNVKKGQFLAPWDMKNVLAKITESGNPNVLATERGVSFGYNTLVSDMRALPIMAGLGAPVIFDATHSVQQPGGQGGSTGGQREFVETLARAAVAVGVAGFFIETHEDPDNAPSDGPNMVPIDKMPALLEKLMAFDRIAKAL,soluble
10,MPLSPYLSFAGNCSDAIAYYQRTLGAELLYKISFGEMPKSAQDSAENCPSGMQFPDTAIAHANVRIAGSDIMMSDAIPSGKASYSGFTLVLDSQQVEEGKRWFDNLAANGKIEMAWQETFWAHGFGKVTDKFGVPWMINVVKQQPTQ,not soluble
11,MHHHHHHSSGVDLGTENLYFQSMGAGRRESEPRPTSARQLDGIRNIVLSNPKKRNTLSLAMLKSLQSDILHDADSNDLKVIIISAEGPVFSSGHDLKELTEEQGRDYHAEVFQTCSKVMMHIRNHPVPVIAMVNGLATAAGCQLVASCDIAVASDKSSFATPGVNVGLFCSTPGVALARAVPRKVALEMLFTGEPISAQEALLHGLLSKVVPEAELQEETMRIARKIASLSRPVVSLGKATFYKQLPQDLGTAYYLTSQAMVDNLALRDGQEGITAFLQKRKPVWSH,soluble
12,MFERVREDIQSVFHRDPAARNALEVLTCYPGLHAVWLHRLAHGLWTSGWKWLARLVSNFGRWMTGIEIHPGARIGRRFFIDHGMGIVIGETAEIGDDVTLYQGVTLGGTTWNKGKRHPTLGNNVVVGAGAKVLGPFTVGEGAKVGSNAVVTKEVPPGATVVGIPGRIIMREDSEQQAKRQAMAEKLGFDAYGVSQDMPDPVARAIGQLLDHLQAVDGRLEGMCQALTALGSDYCAKDLPVLREEDFAGVKDEDGNPAA,not soluble
13,SDLWVQKMKTYFNRIDFDKDGAITRMDFESMAERFAKESEMKAEHAKVLMDSLTGVWDNFLTAVAGGKGIDETTFINSMKEMVKNPEAKSVVEGPLPLFFRAVDTNEDNNISRDEYGIFFGMLGLDKTMAPASFDAIDTNNDGLLSLEEFVIAGSDFFMNDGDSTNKVFWGPLV,soluble
14,AGPGAEEEQLDTAEIAFQVKEQLLKHNIGQRVFGHYVLGLSQGSVSEILARPKPWRKLTVKGKEPFIKMKQFLSDEQNVLALRTIQVR,soluble
15,MISNNTRRVYRISFSFFEQYCLEHNLQSLPADPRSIISFIGHQKELLQASTGMQLSKQTLTTRIAAIRFYHIQAGFPTPTEHPQVIRVMRGLSRNHHRLVQDYDQQPLEHHHHHH,not soluble
16,SHSEAEESKEVAADVFNSKNLAVQAQKKILGKMVSKSIATTLIDDTSSEVLDELYRVTREYTQNKKEAEKIIKNLIKTVIKLAILYRNNQFNQDELALMEKFKKKVHQLAMTVVSFHQVDYTFDRNVLSRLLNECREMLHQIIQRHLTAKSHGRVNNVFDHFSDCEFLAALYNPFGNFKPHLQKLCDGINKMLDEENI,soluble
17,MNMAERAEATKSWSCEPLSGKTLEEIVQNAENAADLVAYIRKPEVDLDFRLKFIAEHEEFFNEQLSDRNSRIRTCHNLSDKGIRGDTVFVFVPGLAGNLEQFEPLLELVDSDQKAFLTLDLPGFGHSSEWSDYPMLKVVELIFVLVCDVLRKWSTAVPNNDNVNPFNGHKIVLVGHSMGCFLACHLYEQHMADTKAVQTLVLLTPPKAHIEQLSKDKHIIQWALYGVFKLPWLFDVYRNKFDQVKGLQSSGIKQYFYQQGDDVKLKYRKFWQFKNNISNKSRTIIGYLLGWETVDWVKFNGVLTQTDMKQKIIIFGAEKDPIAPIENLEFYKQTINKECLRKVIILPDCSHNLCFDRPELVCENFQREVIDNSKL,soluble
18,AIIVKKTTEIEQTHKDYDPYQILGLDQGADEKAIKKAWRDMSKIHHPDRGGDAQFFDKIAKAHQALTDKEARENWEKYGNPDGPTATTFGIALPKWLVSKEYGL,not soluble
19,MSLERAKNSDLLRESLTTEELLLISNFAKKKGADSVFFKIIEKLDLKFRLSSFGLEVKNFLMKSKLTGDELTKLTPEILKNKTYENKKFRAYNIHIPSAKTFIGRANSYLDYISKIKDKLVGLGFQEFDGPLVETEFFNNDALFMPQFHPSRDIKDVYYISDPSMQESLPEPYFSNVKLAHETGYATGSRGWRYSFSEDLSKRLVLRTHGTVLSAKQLINAKNPSRYFGVIRCFRYDQVDATHGVDFYQTEGIVIEDGVSIKTLLGLLEIFAKELAGATEIKYVPAYFPFTEPSIEIHVKHPVLGWFELGGSGIFRPEVTKPLGIDLPVIAWGIGIDRMALMHLGLNDLRDLFTYDIGDVILRRGKIDAKVRNEGHHHHHH,not soluble

# Reference: the DeepSol protein solubility set
